Assay: soluble on expression in E. coli; label from the status in PepcDB or PDB records

Which “soluble on expression in E. coli” value does the source give for “MMIDDSKVSFVIPTINEEGTIGSVIDGIRSEFPNSEIIVVDTNSTDRTREIARSKGARVIEEPRRGYGRAYQTGIPAASGEIIVCMDGDGTYPTDVVKPLIELLIADRVDFISCDRITFRTSKNYTTLHYVGNMVLNLTIRILFKVRMVDSQSGMWVFRSEIYRKMKNLGNGMSFSQNIKIEAVRHGVFMEIPIRYGVRITKPKLKTWHDGFHNLFALFVKRVSE” here?
Its value is “not soluble”.

For “MMIKIAVVGSKEFMENLFPIAQKLEGIEIDPYIYLHPAESSELLKCLKPCDVIFFSGALPYYMAKEIREQLRIPSTYLQQDETTVASSILSIMYHQSIQPHNISIDLVDRSFITNVFHDIGIKESPQVLDYENMLWSKDEINRVIDFHVAKYQYGEAHLALTSIHAVYDELQKIGIPSERMIDPTQSIIHGLKDAKIKAELAKSYSATVGACIISSLELRASLLEKLDVISKELRGSFKQVDEMTCILYTTRGDIESIIKTNAIDNLFASIEGTIAIGFGYGKTVKEAEQNAKIAQSFAKNYPIDRCFYILASDKDLFGPFPKEQRVQSLKNDNPELMKIAKETKLSPANLSKIIQFSQSHPSLKFTAADLSEYLQVTRRSTERLLKKLVDYGYAHICGEEMPYQQGRPRALYELNFPLFLSF”, which “soluble on expression in E. coli” value is on record?
Its value is “not soluble”.

With “MMKDLNLSNSLFKGYNDKHGLMICGYEWGWSKADEAAYVAGEYKLPENKIDHTFANKSLYFGEQAKKWRYDNTIKNWFEMWGHPLDENGLGGAFEKSLVQTNWAATQGNTIDNPDKFTQPEHIDNFLYHIEKLRPKVILFMGSRLADFLNNQNVLPRFEQLVGKQTKPLETVQKEFDGTRFNVKFQSFEDCEVVCFPHPSASRGLSYDYIALFAPEMNRILSDFKTTRGFK” as the sequence, how does the “soluble on expression in E. coli” value read?
Its value is “not soluble”.

With “MMKKDYRTQVIEDLKKQDKAKKVLRDEQLLEELIQLEAYQKAHVIATYLAFPFEFDTSLLIEQAQRDNKSIVVPKTYPQGKMIFVVYDEADLQITKFGLKEPRSEEALEKSAIDLIHVPGLAFNNEGYRIGFGAGYYDQYLADFQGDTVSTIYSFQKFTFEPSFFDIPVKEVLVSGDLLEHHHHHH” as the sequence, how does the “soluble on expression in E. coli” value read?
Its value is “soluble”.

With “MMKKEKELLVAIASQKGGVGKSVFTVLLASVLHYRKDVRVAVVDCDSPQHSIALMRERDMENVMKNDDLKVNLYRQYERIRKPAYPVIKSDPEKGVEDLRRYMDEKGETFDIVLFDLPGTLRSEGVVHTVAAMDYIFVPLKADNIVMQSSLQFTKVLEEELIAKGNCNLKGIRLFWNMVDRRGRKNLYDAWNRVIHRMGLRLLSSHIPNTLRYNKEADPVCKGVFRSTLFPPDPRQEKDSGLPELVEAAFFGRDPGITLL” as the sequence, how does the “soluble on expression in E. coli” value read?
Its value is “not soluble”.

Which “soluble on expression in E. coli” value does the source give for “MMKKMAIACALLSSVVASSVWADAASSLKSRLDKVSSFHATFTQKVTDGSGAAVQEGQGDLWVKRPNLFNWHMTQPDESILVSDGKTLWFYNPFVEQATATWLKDATGNTPFMLIARNQASDWQQYNIKQDGDNFVLTPKASNGNLKQFTINVGRDGTIHQFSAVEQDDQRSAYQLKSQQNGAVDPSKFTFTPPQGVTIDDQRK” here?
Its value is “not soluble”.

For “MMKTNTKKAKYDDAELFEKVLVGMSWLESHLREIIQTMVTDADVSFEQFLILYYLDHSTDHRITVKELAADRHVSSSAISRKLTYLINNDLIVLNIDPYDRRYRYLTLTAKGEKLARVIEKVNEERLGKFLDEFGRIRTSELTDELRMVSKVLVDTKEIKG”, which “soluble on expression in E. coli” value is on record?
Its value is “not soluble”.

For “MMLITDTGVPERYIDTDEWGGEVMLRLDDGWCAALDRNTMMCTIYEKRPLICREFEAGAEDCLTERKGIATAYL”, which “soluble on expression in E. coli” value is on record?
Its value is “soluble”.

Which “soluble on expression in E. coli” value does the source give for “MMLKQAAKKALGLTSRQSTPWSVGILRTYHENVIDHYDNPRNVGSFDKNDPNVGTGLVGAPACGDVMKLQIKVDEKTGQIVDARFKTFGCGSAIASSSVATEWVKGKAMEDVLTIKNTEIAKHLSLPPVKLHCSMLAEDAIKAAVKDYKEKRVKTNGAAAAGETTQA” here?
The value was “not soluble”.

With “MMMFLPPEVVREIHEERVKKALENLKAIELEKELLEKVVKEEKKVSSRRRRREKETVEV” as the sequence, how does the “soluble on expression in E. coli” value read?
Its value is “not soluble”.

For “MMNASTKFSDNYDVKEELGKGAFSVVRRCVHKTTGLEFAAKIINTKKLSARDFQKLEREARICRKLQHPNIVRLHDSIQEESFHYLVFDLVTGGELFEDIVAREFYSEADASHCIQQILESIAYCHSNGIVHRDLKPENLLLASKAKGAAVKLADFGLAIEVNDSEAWHGFAGTPGYLSPEVLKKDPYSKPVDIWACGVILYILLVGYPPFWDEDQHRLYAQIKAGAYDYPSPEWDTVTPEAKSLIDSMLTVNPKKRITADQALKVPWICNRERVASAIHRQDTVDCLKKFNARRKLKAAISAVKMVTRMSGVLRTSDSTGSVASNGSTTHDASQVAGTSSQPTSPAAEGAILTTMIATRNLSNLGRNLLNKKEQGPPSTIKESSESSQTIDDNDSEKGGGQLKHENTVVRADGATGIVSSSNSSTASKSSSTNLSAQKQDIVRVTQTLLDAISCKDFETYTRLCDTSMTCFEPEALGNLIEGIEFHRFYFDGNRKNQVHTTMLNPNVHIIGEDAACVAYVKLTQFLDRNGEAHTRQSQESRVWSKKQGRWVCVHVHRSTQPSTNTTVSEF”, which “soluble on expression in E. coli” value is on record?
The value was “not soluble”.

With “MMNLHALPTSPRRWQCYDGGNFYQTRLRVSESPNMFKKILFPLVALFMLAGCAKPPTTIEVSPTITLPQQDPSLMGVTVSINGADQRTDQALAKVTRDNQIVTLTASRALRFLLQEVLEKQMTARGYMVGPNGPVNLQIIVSQLYADVSQGNVRYNIATKADIAIIATAQNGNKMTKNYRASYNVEGAFQASNKNIADAVNSVLTDTIADMSQDTSIHEFIKQNAR” as the sequence, how does the “soluble on expression in E. coli” value read?
The value was “not soluble”.

Which “soluble on expression in E. coli” value does the source give for “MMPFEAVIGLEVHVQLNTKTKIFCSCSTSFGESPNSNTCPVCLGLPGALPVLNKEVVKKAIQLGTAIEANINQYSIFARKNYFYPDLPKAYQISQFEVPIVSDGKLEIDTKEGAKIVRIERAHMEEDAGKNIHEGSYSLVDLNRACTPLLEIVSKPDMRNSEEAIAYLKKLHAIVRFIGISDANMQEGNFRCDANVSIRPKGDEKLYTRVEIKNLNSFRFIAKAIEYEIERQSAAWENGRYNEEVVQETRLFDTHKGITLSMRNKEESADYRYFKDPDLYPVFIDEKLLKEAQKINELPSAKKIRYMKDFNLKEDDANLLVSDPLLAQYFESMLHLGVKAKTSVTWLCVELLGRLKAEITLENCGVSTHMLGALAKRIDEGKISGKSAKDVLDKLLEEQGGDVDALIEQMGLSQVNDTEAIVKVIEEVLKNNADKVLEYKSGKDKLFGFFVGQAMKNLKGANPSVVNAILKEKLG” here?
The value was “not soluble”.

For “MMQIDSIEIGGKVYQFFKSDLGNAPLLFIKGSKGYAMCGYLNMETSNKVGDIAVRVMGVKTLDDMLSAKVVEASQEAQKVGINPGDVLRNVIDKL”, which “soluble on expression in E. coli” value is on record?
The value was “soluble”.

For “MMQISDTYNQKHSLFNAMNRFIGAVNNMDQTVMVPSLLRDVPLDMEVKDEVHNTIGATNYFSRTDMHGYYILLKSIRNDIEWGVVQGEDRKKDKLSNMEISRLEDGDGEEDLEKQFHYHLSGLHTVLNKLTRKAHILTNRYKEEIGFGSWGH”, which “soluble on expression in E. coli” value is on record?
The value was “not soluble”.

Which “soluble on expression in E. coli” value does the source give for “MMRGSHHHHHTDPISYIIRKADSVNKALDSAVPLREPLKIHEAMRYSLLAGGKRVRPVLCIAACELVGGEESLAMPAACAVEMIHTMSLIHDDVYGEDVAVLAGDALLSFAFEHLASATSSEVSPARVVRAVGELAKAIGTEGLVAGQVVDISNVGLEHLKFIHLHKTAALLEASAVLGGIIGGGSDEEIERLRKFARCIGLLFQVVDDILDVTIADKLTYPKLMGLEKSREFAEKLNTEARDQLLGFDSDKVAPLLALANYIANRQN” here?
Its value is “soluble”.

For “MMSDQKDEEEYSHSSNRSEDEDEERTIDNEINRSPNKSYKLGNIIGNGSFGVVYEAICIDTSEQVAIKKVLQDPQYKNRELMIMKNLNHINIIYLKDYYYTESFKKNEKNIFLNVVMEYIPQTVHKYMKYYSRNNQALPMFLVKLYSYQLCRALSYIHSKFICHRDLKPQNLLIDPRTHTLKLCDFGSAKNLLAGQRSVSYICSRFYRAPELMLGSTNYTTHIDLWSLGCIIAEMILGYPIFSGQSSVDQLVRIIQVLGTPTEDQLKEMNPNYADIKFPDVKSKDLRKVFPKGTPDEAINLITQFLKYEPLKRLNPIEALADPFFDELRDPCIKLPKYIDKLPELFNFCKEEIQEMSMECRRKIIPKNVYEEFLMVDE”, which “soluble on expression in E. coli” value is on record?
The value was “not soluble”.

For “MMSLAWPLFRVTEQAALAAWPQTGCGDKNKIDGLAVTAMRQALNDVAFRGRVVIGEGEIDHAPMLWIGEEVGKGDGPEVDIAVDPIEGTRMVAMGQSNALAVMAFAPRDSLLHAPDMYMKKLVVNRLAAGAIDLSLPLTDNLRNVAKALGKPLDKLRMVTLDKPRLSAAIEEATQLGVKVFALPDGDVAASVLTCWQDNPYDVMYTIGGAPEGVISACAVKALGGDMQAELIDFCQAKGDYTENRQIAEQERKRCKAMGVDVNRVYSLDELVRGNDILFSATGVTGGELVNGIQQTANGVRTQTLLIGGADQTCNIIDSLH”, which “soluble on expression in E. coli” value is on record?
Its value is “soluble”.

With “MMSLVIAFISCSKSDEDKVIKEENPKITSDTFSAVIKDGFTGENGEDLILYKNLKNIVVGDYIPYDITIKDEDSANTKYILTPTRIGEKNHQYFQIDYDVYLDNDKGEKVRVNAITFDKIGKHRFYIKPLVPGTFKLSFVLQREQNGQKVQDIKFPTLNFNVVKITVYKTQIFIGLYEVRFYIEDGENETDIYLSPDPSVKQTFVSKYNDMTYTGDFNVKEFCKVGYYSSTIKTITSITIIQKREGEEEYRIEYYNIPIP” as the sequence, how does the “soluble on expression in E. coli” value read?
The value was “not soluble”.

With “MMTDLSTPDLPRMSAAIAEPTSHDPDSGGHFGGPSGWGGRYVPEALMAVIEEVTAAYQKERVSQDFLDDLDRLQANYAGRPSPLYEATRLSQHAGSARIFLKREDLNHTGSHKINNVLGQALLARRMGKTRVIAETGAGQHGVATATACALLGLDCVIYMGGIDTARQALNVARMRLLGAEVVAVQTGSKTLKDAINEAFRDWVANADNTYYCFGTAAGPHPFPTMVRDFQRIIGMEARVQIQGQAGRLPDAVVACVGGGSNAIGIFHAFLDDPGVRLVGFEAAGDGVETGRHAATFTAGSPGAFHGSFSYLLQDEDGQTIESHSISAGLDYPGVGPEHAWLKEAGRVDYRPITDSEAMDAFGLLCRMEGIIPAIESAHAVAGALKLGVELGRGAVIVVNLSGRGDKDVETAAKWFGLLGND” as the sequence, how does the “soluble on expression in E. coli” value read?
The value was “soluble”.

Which “soluble on expression in E. coli” value does the source give for “MMYRIRNWLVATLLLLCAQVGAATLSDIQVSNGNQQARITLSFIGDPDYAFSHQSKRTVALDIKQTGVIQGLPLLFSGNNLVKAIRSGTPKDAQTLRLVVDLTENGKTEAVKRQNGSNYTVVFTINADAPPPPPPPPVVVKRVETPTVVAPRVSEPARNPFKTESNRTTGVISSNTVTRPAARATANNGDKIIIAIDAGHGGQDPGAIGPGGTREKNVTIAIARKLRTLLNDDPMFKGVLTRDGDYFISVMGRSDVARKQNANFLVSIHADAAPNRSATGASVWVLSNRRANSEMASWLEQHEKQSELLGGAGDVLANSQSDPYLSQAVLDLQFGHSQRVGYDVATSMISQLQRIGEIHKRRPEHASLGVLRSPDIPSVLVETGFISNNSEERLLASDDYQQQLAEAIYKGLRNYFLAHPMQSAPQGATAQTASTVTTPDRTLPN” here?
The value was “not soluble”.

Which “soluble on expression in E. coli” value does the source give for “MNAFNLIIIGDEILHGSSQDKHFAFFKSLLESKGLKLNQVQYLPDEPDLLVRQLRRSFSDGMPTFVTGGIGATPDDHTRQAAAAALDLPVVRHSEAAKFIEGITQKRGEPLDSPEHAQRLKMADFPEGAELVPNPFNNIAGFSIREHYFFPGFPVMAHPMAEWVLETYYADRFNQTERGSRSVYVFEQPESRITPLMEHIEQTYPGVRSYSLPSVGWTHSDGTQVKPHIEFGIKAEGEAVNLLDAAWAEVLHSLDGLGAELKNRVN” here?
The value was “not soluble”.

Which “soluble on expression in E. coli” value does the source give for “MNAGILGVGKYVPEKIVTNFDLEKIMDTSDEWIRTRTGIEERRIARDDEYTHDLAYEAAKVAIKNAGLTPDDIDLFIVATVTQEATFPSVANIIQDRLGAKNAAGMDVEAACAGFTFGVVTAAQFIKTGAYKNIVVVGADKLSKITNWDDRTTAVLFGDGAGAVVMGPVSDDHGLLSFDLGSDGSGGKYLNLDENKKIYMNGREVFRFAVRQMGEASLRVLERAGLEKEDLDLLIPHQANIRIMEASRERLNLPEEKLMKTVHKYGNTSSSSIALALVDAVEEGRIKDNDNVLLVGFGGGLTWGALIIRWGK” here?
The value was “not soluble”.
